Source: patent US20200199241A1 (Chugai, published 2020)

biological target: T1, human FcRn (soluble human FcRn complexed with β2-microglobulin) (human, UniProt P61769 21-119, limits assumed); assay: SPR, pH 7.0;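 also: antibodies captured on a Protein L sensor chip with human FcRn injected as analyte, KD calculated from fitted association and dissociation rate constants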
T1 construct: also called hFcRn

Binder	Kd [nM]
IgG1-F577 (antibody, EU numbering; copies: 2 + 2) heavy: QVQLQESGPGLVKPSETLSLTCAVSGHSISHDHAWSWVRQPPGEGLEWIGFISYSGITNYNPSLQGRVTISRDNSKNTLYLQMNSLRAEDTAVYYCARSLARTTAMDYWGEGTLVTVSSASTKGPSVFPLAPSSKSTSGGTAALGCLVKDYFPEPVTVSWNSGALTSGVHTFPAVLQSSGLYSLSSVVTVPSSSLGTQTYICNVNHKPSNTKVDKKVEPKSCDKTHTCPPCPAPELLGGPSVFLFPPKPKDTLYISRTPEVTCVVVDVSHEDPEVKFNWYVDGVEVHEAKTKPREEQYNSTYRVVSVLAVLHADWLNGKEYKCKVSNKALPAPIEKTISKAKGQPREPQVYTLPPSRDELTKNQVSLTCLVKGFYPSDIAVEWESNGQPENNYKTTPPVLDSDGSFFLYSKLTVDKSRWQQGNVFSCSVMHEALHNHYTQKSLSLSP light: not shown	1300
IgG1-F578 (antibody, EU numbering; copies: 2 + 2) heavy: QVQLQESGPGLVKPSETLSLTCAVSGHSISHDHAWSWVRQPPGEGLEWIGFISYSGITNYNPSLQGRVTISRDNSKNTLYLQMNSLRAEDTAVYYCARSLARTTAMDYWGEGTLVTVSSASTKGPSVFPLAPSSKSTSGGTAALGCLVKDYFPEPVTVSWNSGALTSGVHTFPAVLQSSGLYSLSSVVTVPSSSLGTQTYICNVNHKPSNTKVDKKVEPKSCDKTHTCPPCPAPELLGGPSVFLFPPKPKDTLYISRTPEVTCVVVDVSHEDPEVKFNWYVDGVEVHEAKTKPREEQYNSTYRVVSVLQVLHADWLNGKEYKCKVSNKALPAPIEKTISKAKGQPREPQVYTLPPSRDELTKNQVSLTCLVKGFYPSDIAVEWESNGQPENNYKTTPPVLDSDGSFFLYSKLTVDKSRWQQGNVFSCSVMHEALHNHYTQKSLSLSP light: not shown	570
IgG1-F583 (antibody, EU numbering; copies: 2 + 2) heavy: QVQLQESGPGLVKPSETLSLTCAVSGHSISHDHAWSWVRQPPGEGLEWIGFISYSGITNYNPSLQGRVTISRDNSKNTLYLQMNSLRAEDTAVYYCARSLARTTAMDYWGEGTLVTVSSASTKGPSVFPLAPSSKSTSGGTAALGCLVKDYFPEPVTVSWNSGALTSGVHTFPAVLQSSGLYSLSSVVTVPSSSLGTQTYICNVNHKPSNTKVDKKVEPKSCDKTHTCPPCPAPELLGGPKVFLFPPKPKDTLYISRTPEVTCVVVDVSHEDPEVKFNWYVDGVEVHNAKTKPREEQYNSTYRVVSVLTPLHQDWLNGKEYKCKVSNKALPAPIEKTISKAKGQPREPQVYTLPPSRDELTKNQVSLTCLVKGFYPSDIAVEWASNGQPENNYKTTPPVLDSDGSFFLYSKLTVDKSRWQQGNVFSCSVMHEALHNHYTQKSLSLSP light: not shown	780
IgG1-F580 (antibody, EU numbering; copies: 2 + 2) heavy: QVQLQESGPGLVKPSETLSLTCAVSGHSISHDHAWSWVRQPPGEGLEWIGFISYSGITNYNPSLQGRVTISRDNSKNTLYLQMNSLRAEDTAVYYCARSLARTTAMDYWGEGTLVTVSSASTKGPSVFPLAPSSKSTSGGTAALGCLVKDYFPEPVTVSWNSGALTSGVHTFPAVLQSSGLYSLSSVVTVPSSSLGTQTYICNVNHKPSNTKVDKKVEPKSCDKTHTCPPCPAPELLGGPSVFLFPPKPKDTLYISRTPEVTCVVVDVSHEDPEVKFNWYVDGVEVHEAKTKPREEQYNSTYRVVSVLQVLHHDWLNGKEYKCKVSNKALPAPIEKTISKAKGQPREPQVYTLPPSRDELTKNQVSLTCLVKGFYPSDIAVEWESNGQPENNYKTTPPVLDSDGSFFLYSKLTVDKSRWQQGNVFSCSVMHEALHNHYTQKSLSLSP light: not shown	860
IgG1-F570 (antibody, EU numbering; copies: 2 + 2) heavy: QVQLQESGPGLVKPSETLSLTCAVSGHSISHDHAWSWVRQPPGEGLEWIGFISYSGITNYNPSLQGRVTISRDNSKNTLYLQMNSLRAEDTAVYYCARSLARTTAMDYWGEGTLVTVSSASTKGPSVFPLAPSSKSTSGGTAALGCLVKDYFPEPVTVSWNSGALTSGVHTFPAVLQSSGLYSLSSVVTVPSSSLGTQTYICNVNHKPSNTKVDKKVEPKSCDKTHTCPPCPAPELLGGPSVFLFPPKPKDTLYITRTPEVTCVVVDVSHEDPEVKFNWYVDGVEVHNAKTKPREEQYNSTYRVVSVLAVLHHDWLNGKEYKCKVSNKALPAPIEKTISKAKGQPREPQVYTLPPSRDELTKNQVSLTCLVKGFYPSDIAVEWESNGQPENNYKTTPPVLDSDGSFFLYSKLTVDKSRWQQGNVFSCSVMHEALHYHYTQKSLSLSP light: not shown	130
IgG1-F569 (antibody, EU numbering; copies: 2 + 2) heavy: QVQLQESGPGLVKPSETLSLTCAVSGHSISHDHAWSWVRQPPGEGLEWIGFISYSGITNYNPSLQGRVTISRDNSKNTLYLQMNSLRAEDTAVYYCARSLARTTAMDYWGEGTLVTVSSASTKGPSVFPLAPSSKSTSGGTAALGCLVKDYFPEPVTVSWNSGALTSGVHTFPAVLQSSGLYSLSSVVTVPSSSLGTQTYICNVNHKPSNTKVDKKVEPKSCDKTHTCPPCPAPELLGGPSVFLFPPKPKDTLYISRQPEVTCVVVDVSHEDPEVKFNWYVDGVEVHNAKTKPREEQYNSTYRVVSVLAVLHHDWLNGKEYKCKVSNKALPAPIEKTISKAKGQPREPQVYTLPPSRDELTKNQVSLTCLVKGFYPSDIAVEWESNGQPENNYKTTPPVLDSDGSFFLYSKLTVDKSRWQQGNVFSCSVMHEALHYHYTQKSLSLSP light: not shown	200
IgG1-F582 (antibody, EU numbering; copies: 2 + 2) heavy: QVQLQESGPGLVKPSETLSLTCAVSGHSISHDHAWSWVRQPPGEGLEWIGFISYSGITNYNPSLQGRVTISRDNSKNTLYLQMNSLRAEDTAVYYCARSLARTTAMDYWGEGTLVTVSSASTKGPSVFPLAPSSKSTSGGTAALGCLVKDYFPEPVTVSWNSGALTSGVHTFPAVLQSSGLYSLSSVVTVPSSSLGTQTYICNVNHKPSNTKVDKKVEPKSCDKTHTCPPCPAPELLGGPKVFLFPPKPKDTLYISRTPEVTCVVVDVSHEDPEVKFNWYVDGVEVHNAKTKPREEQYNSTYRVVSVLTPLHQDWLNGKEYKCKVSNKALPAPIEKTISKAKGQPREPQVYTLPPSRDELTKNQVSLTCLVKGFYPSDIAVEWESNGQPENNYKTTPPVLDSDGSFFLYSKLTVDKSRWQQGNVFSCSVMHEALHNHYTQKSLSLSP light: not shown	750
IgG1-F584 (antibody, EU numbering; copies: 2 + 2) heavy: QVQLQESGPGLVKPSETLSLTCAVSGHSISHDHAWSWVRQPPGEGLEWIGFISYSGITNYNPSLQGRVTISRDNSKNTLYLQMNSLRAEDTAVYYCARSLARTTAMDYWGEGTLVTVSSASTKGPSVFPLAPSSKSTSGGTAALGCLVKDYFPEPVTVSWNSGALTSGVHTFPAVLQSSGLYSLSSVVTVPSSSLGTQTYICNVNHKPSNTKVDKKVEPKSCDKTHTCPPCPAPELLGGPKVFLFPPKPKDTLYISREPEVTCVVVDVSHEDPEVKFNWYVDGVEVHNAKTKPREEQYNSTYRVVSVLTPLHQDWLNGKEYKCKVSNKALPAPIEKTISKAKGQPREPQVYTLPPSRDELTKNQVSLTCLVKGFYPSDIAVEWESNGQPENNYKTTPPVLDSDGSFFLYSKLTVDKSRWQQGNVFSCSVMHEALHNHYTQKSLSLSP light: not shown	630
IgG1-F576 (antibody, EU numbering; copies: 2 + 2) heavy: QVQLQESGPGLVKPSETLSLTCAVSGHSISHDHAWSWVRQPPGEGLEWIGFISYSGITNYNPSLQGRVTISRDNSKNTLYLQMNSLRAEDTAVYYCARSLARTTAMDYWGEGTLVTVSSASTKGPSVFPLAPSSKSTSGGTAALGCLVKDYFPEPVTVSWNSGALTSGVHTFPAVLQSSGLYSLSSVVTVPSSSLGTQTYICNVNHKPSNTKVDKKVEPKSCDKTHTCPPCPAPELLGGPSVFLFPPKPKDTLYISREPEVTCVVVDVSHEDPEVKFNWYVDGVEVHNAKTKPREEQYNSTYRVVSVLQVLHHDWLNGKEYKCKVSNKALPAPIEKTISKAKGQPREPQVYTLPPSRDELTKNQVSLTCLVKGFYPSDIAVEWESNGQPENNYKTTPPVLDSDGSFFLYSKLTVDKSRWQQGNVFSCSVMHEALHNHYTQKSLSLSP light: not shown	1600

Now those with a lower Kd, led by results:

Kd [nM]	Binder
110	IgG1-F568 (antibody, EU numbering; copies: 2 + 2) heavy: QVQLQESGPGLVKPSETLSLTCAVSGHSISHDHAWSWVRQPPGEGLEWIGFISYSGITNYNPSLQGRVTISRDNSKNTLYLQMNSLRAEDTAVYYCARSLARTTAMDYWGEGTLVTVSSASTKGPSVFPLAPSSKSTSGGTAALGCLVKDYFPEPVTVSWNSGALTSGVHTFPAVLQSSGLYSLSSVVTVPSSSLGTQTYICNVNHKPSNTKVDKKVEPKSCDKTHTCPPCPAPELLGGPSVFLFPPKPKDTLYISREPEVTCVVVDVSHEDPEVKFNWYVDGVEVHNAKTKPREEQYNSTYRVVSVLAVLHHDWLNGKEYKCKVSNKALPAPIEKTISKAKGQPREPQVYTLPPSRDELTKNQVSLTCLVKGFYPSDIAVEWESNGQPENNYKTTPPVLDSDGSFFLYSKLTVDKSRWQQGNVFSCSVMHEALHYHYTQKSLSLSP light: not shown
100	IgG1-F572 (antibody, EU numbering; copies: 2 + 2) heavy: QVQLQESGPGLVKPSETLSLTCAVSGHSISHDHAWSWVRQPPGEGLEWIGFISYSGITNYNPSLQGRVTISRDNSKNTLYLQMNSLRAEDTAVYYCARSLARTTAMDYWGEGTLVTVSSASTKGPSVFPLAPSSKSTSGGTAALGCLVKDYFPEPVTVSWNSGALTSGVHTFPAVLQSSGLYSLSSVVTVPSSSLGTQTYICNVNHKPSNTKVDKKVEPKSCDKTHTCPPCPAPELLGGPSVFLFPPKPKDTLYISRTPEVTCVVVDVSHEDPEVKFNWYVDGVEVHNAKTKPREEQYNSTYRVVSVLAVLHHDWLNGKEYKCKVSNKALPAPIEKTISKAKGQPREPQVYTLPPSRDELTKNQVSLTCLVKGFYPSDIAVEWESNGQPENNYKTTPPVLDSDGSFFLYSKLTVDKSRWQQGNVFSCSVIHEALHYHYTQKSLSLSP light: not shown
81	IgG1-F571 (antibody, EU numbering; copies: 2 + 2) heavy: QVQLQESGPGLVKPSETLSLTCAVSGHSISHDHAWSWVRQPPGEGLEWIGFISYSGITNYNPSLQGRVTISRDNSKNTLYLQMNSLRAEDTAVYYCARSLARTTAMDYWGEGTLVTVSSASTKGPSVFPLAPSSKSTSGGTAALGCLVKDYFPEPVTVSWNSGALTSGVHTFPAVLQSSGLYSLSSVVTVPSSSLGTQTYICNVNHKPSNTKVDKKVEPKSCDKTHTCPPCPAPELLGGPSVFLFPPKPKDTLYISRTPEVTCVVVDVSHEDPEVKFNWYVDGVEVHEAKTKPREEQYNSTYRVVSVLAVLHHDWLNGKEYKCKVSNKALPAPIEKTISKAKGQPREPQVYTLPPSRDELTKNQVSLTCLVKGFYPSDIAVEWESNGQPENNYKTTPPVLDSDGSFFLYSKLTVDKSRWQQGNVFSCSVMHEALHYHYTQKSLSLSP light: not shown
72	IgG1-F581 (antibody, EU numbering; copies: 2 + 2) heavy: QVQLQESGPGLVKPSETLSLTCAVSGHSISHDHAWSWVRQPPGEGLEWIGFISYSGITNYNPSLQGRVTISRDNSKNTLYLQMNSLRAEDTAVYYCARSLARTTAMDYWGEGTLVTVSSASTKGPSVFPLAPSSKSTSGGTAALGCLVKDYFPEPVTVSWNSGALTSGVHTFPAVLQSSGLYSLSSVVTVPSSSLGTQTYICNVNHKPSNTKVDKKVEPKSCDKTHTCPPCPAPELLGGPSVFLFPPKPKDTLYISREPEVTCVVVDVSHEDPEVKFNWYVDGVEVHEAKTKPREEQYNSTYRVVSVLTVLHQDWLNGKEYKCKVSNKALPAPIEKTISKAKGQPREPQVYTLPPSRDELTKNQVSLTCLVKGFYPSDIAVEWESNGQPENNYKTTPPVLDSDGSFFLYSKLTVDKSRWQQGNVFSCSVMHEALHYHYTQKSLSLSP light: not shown
